Results reported in PMC7979930.

Experiments:
[1] = biological target: CBF3core, dephosphorylated (Cep3 dimer, Ctf13, Skp1) (budding yeast) (UniProt P40969+P35203+P52286); test: EMSA; settings: 1 mM DTT, 60 min on ice, 530 nM nucleosome, 106-1166 nM CBF3/CBF3core, 4% PAGE 0.2x TBE 4 C, EtBr stain, Hill fit
[2] = biological target: CBF3, dephosphorylated (CBF3core + Ndc10 NTD) (budding yeast) (UniProt P40969+P35203+P52286+P32504); test: EMSA; settings: Ndc10 dissociates, main text says CEN3 nucleosome, Methods CEN3-601, EMSA: 10 mM Tris pH 7.4, 75 mM NaCl, 1 mM DTT, 60 min on ice, 530 nM nucleosome, 106-1166 nM CBF3/CBF3core, 4% PAGE 0.2x TBE 4 C, EtBr stain, Hill fit
[3] = biological target: CEN3 CENP-A^Cse4 nucleosome with H2B_5mut (budding yeast | yeast) (UniProt P36012); test: native gel or EMSA; CBF3/CBF3core with CEN3 nucleosomes, room temperature 60 min; native agarose gels in 0.2 x TBE, SYBR Green I stain, bands quantified
[4] = biological target: CEN3 CENP-A^Cse4_∆L1 nucleosome (budding yeast | yeast) (UniProt P36012); test: as above
[5] = biological target: CEN3 CENP-A^Cse4_∆L1 nucleosome with H2B_5mut (budding yeast | yeast) (UniProt P36012); test: as above
[6] = biological target: CEN3 CENP-A^Cse4 nucleosome (budding yeast | yeast) (UniProt P36012); test: as above
[7] = Fig. 3c legend says CEN3, Supp. Fig. 4f says CEN3-601, EMSA: 10 mM Tris pH 7.4, 75 mM NaCl

“ATCGAGAATCCCGGTGCCGAGGCCGCTCAATTGGTCGTAGACAGCTCTAGCACCGCTTAAACGCACGTACGCGCTGTCCCCCGCGTTTTAATATTAGTGTATTTGATTTCCGAAAGTTAAAAAAGAAATAGTAAGAAATCATCCGAT (double strand) [CEN3-601 Cse4 nucleosome]” gave a Kd ([1]; NucCse4/H2B, Fig. 3c legend says CEN3, Supp. Fig. 4f and Methods say CEN3-601, EMSA: 10 mM Tris pH 7.4, 75 mM NaCl) of 320 nM and a Kd [2] of 550 nM.

With “ATCGAGAATCCCGGTGCCGAGGCCGCTCAATTGGTCGTAGACAGCTCTAGCACCGCTTAAACGCACGTACGCGCTGTCCCCCGCGTTTTAATATTAGTGTATTTGATTTCCGAAAGTTAAAAAAGAAATAGTAAGAAATCATCCGAT (double strand) [CEN3-601 Cse4/H2B_5mut nucleosome]” the Kd [1, 7] was 350 nM.

“ATCGAGAATCCCGGTGCCGAGGCCGCTCAATTGGTCGTAGACAGCTCTAGCACCGCTTAAACGCACGTACGCGCTGTCCCCCGCGTTTTAATATTAGTGTATTTGATTTCCGAAAGTTAAAAAAGAAATAGTAAGAAATCATCCGAT (double strand) [CEN3-601 Cse4_deltaL1/H2B_5mut nucleosome]” gave a Kd [1, 7] of 680 nM.

Substance “ATCGAGAATCCCGGTGCCGAGGCCGCTCAATTGGTCGTAGACAGCTCTAGCACCGCTTAAACGCACGTACGCGCTGTCCCCCGCGTTTTAATATTAGTGTATTTGATTTCCGAAAGTTAAAAAAGAAATAGTAAGAAATCATCCGAT (double strand) [CEN3-601 Cse4_deltaL1 nucleosome]” has a Kd [1, 7] of 360 nM.

“dephosphorylated CBF3core (from UniProt P40969 1-608; P52286 1-194; P35203 1-478) (complex)” was tested, and the Kd [3] was 350 nM, the Kd [4] was 360 nM and the Kd [5] was 680 nM. For the same substance, the Kd [6] was 320 nM.
